# Assay results: publication PMC3472039 (Journal of molecular biology, 2012)
# Square brackets hold non-standard residues; d marks the D form. Ends that are not written are not given here. SeMet = C[Se]CC[C@H](N)C(=O)O
# B1: SeMet-QkI-Qua1(14-67) C35S (domain or fragment, UniProt Q9QYS9 14-67, looked up)
# chain: TPDYL[SeMet]QL[SeMet]NDKKL[SeMet]SSLPNFSGIFNHLERLLDEEISRVRKD[SeMet]YNDTLNGSTEK
# Target: the molecule itself
# Assay: crystal structure
protein,measurement,value
B1,stoichiometry N,2
